Data as given in US20250188193A1 (ROCKEFELLER UNIVERSITY, published 2025).

Columns and labels:
[1] = target: T1, anti-NP antibody 3B62, afucosylated IgG (monomeric, or as immune complex with NP-BSA) (chain 1 pos 82 (Asn297 EU): afucosylated N-glycan; the Fc is a disulfide-linked homodimer; in FIG. 11E it is complexed with NP-BSA through the Fab arms); test: competition ELISA: nanobody pre-complexed with monomeric afucosylated 3B62, then captured on coated FcγRI; the blocked ligand is FcγRI
T1 construct: Immune complexes made with NP-BSA (27 conjugations) at a 10:1 molar ratio; also called monomeric 3B62; IgG immune complexes
Method: Recombinant FcγR ectodomains were expressed in Expi-293F and purified with Ni-NTA resin as in previously described protocols (S. Chakraborty et al., Sci. Transl. Med., eabm7853 (2022)). […] Plates were then blocked with PBS plus 2% (w/v) BSA. IgG immune complexes were prepared by incubation of an anti-NP (4-hydroxy-3-nitrophenylacetyl) antibody 3B62 with NP-BSA (27 conjugations) at a 10:1 molar ratio for 1h at 4° C. […] IgG immune complexes or monomeric 3B62 were brought to a concentration of 20 ug ml⁻¹ or 2 μg/ml respectively and pre-complexed at a 1:1 (v/v) ratio for 1h at room temperature and then captured on FcγR-coated plates. Following 1h incubation, bound IgG was detected using a 1:5000 dilution of horseradish peroxidase (HRP)-conjugated goat F(ab′)₂ anti-human IgG (H+L) (Jackson Immunoresearch). Plates were developed with TMB (3,3′,5,5′-tetramethylbenzidine) two-component peroxidase substrate kit. Reactions were quenched with 1M phosphoric acid. Absorbance at 450 nm was recorded using a SpectraMax Plus spectrophotometer (Molecular Devices). Background absorbance was subtracted for samples, and % maximum binding was determined against an IgG or immune complex only control.

[2] = target: T2, aglycosylated 3B62 N297A mutant (aglycosylated (no N-glycan after N297A); the Fc is a disulfide-linked homodimer); test: SPR (Biacore T200)
T2 construct: 297 is an EU position, not a position on the UniProt entry; also called aglycosylated N297A IgG1 mutant; aglycosylated IgG
Method: Traces are raw data, while 1:1 Langmuir global kinetic fits are shown in black.
Surface Plasmon Resonance (SPR) was performed on a Biacore T200 machine (Cytiva Life Sciences). In some experiments, purified IgG glycoforms diluted in HBS-EP+ were immobilized on the surface of a Protein A or Protein G CM5 sensor chip at 1000 RU (˜50 nM). Purified nanobodies were flowed over IgG-bound sensor chips at the indicated concentrations at 30 uL/minute for 60 seconds, followed by 600 seconds of dissociation. Sensor chips were regenerated with 10 mM Glycine-HCl pH 1.5.

[3] = target: T3, IgG1 S2G2 glycoform (antibody clone not named); test: ELISA with B7; the concentration of the IgG1 glycoform is varied
T3 construct: also called afucosylated form of IgG1

[4] = target: T4, Rituximab G2 (galactosylated afucosylated glycoform); test: SPR (Biacore T200), 1:1 Langmuir kinetic fit
T4 construct: Whole IgG1; also called G2-Rituximab; G2 glycoform of IgG1 Fc

B1: X0 (VHH)
VHH: QVQLQESGGGLVQAGGSLRLSCAASPGISRYKTMGWYRQAPGKERSFVAAITWGGLTYYADSVKGRFTVSRDNAKNTVYLQMNSLKPEDTAVYYCSVDGGTRADPYHYYWGQGTQVTVSS
notes: also called clone X0; not shown: His tag and AviTag from the pET26-b(+) construct
IC50 (read off the curve) [1]: ~1000 nM

B2: B7 (VHH, not shown: small tags and cut ends)
VHH: QVQLQESGGGLVQAGGSLRLSCAASGGISRYKTMGWYRQAPGKEREFVAGITWGGSTYYADSVKGRFTISRDNAKNTVYLQMNSLKPEDTAVYYCSVDGGTYADPYHYYWGQGTQVTVSS
notes: also called clone B7; nanobody B7
binding result [2]: no binding (tested: top concentration 256 nM)
EC50 (read off the curve) [3]: ~0.4 µg/mL

B3: C11 (VHH, not shown: small tags and cut ends)
VHH: QVQLQESGGGLVQAGGSLRLSCAASGYISRYHTMGWYRQAPGKEREFVAGITWGGSTYYADSVKGRFTISRDNAKNTVYLQMNSLKPEDTAVYYCAVDGGTYADPYHYYWGQGTQVTVSS
notes: also called clone C11; C11 parental clone
Kd [4]: 22800 nM

B4: mC11 (VHH)
VHH: QVQLQESGGGLVQAGGSLRLSCAASPGIYRYKTIAWYRQAPGKERSFVAAITWGGLTYRADSVKGRFTVSRDNAKNTVYLQMNSLKPEDTAVYYCSVDGGTRAQPVHYYWGQGTQVTVSS
notes: also called clone mC11; not shown: His tag and AviTag from the pET26-b(+) construct
IC50 (read off the curve) [1]: ~400 nM
